Legend:
purified protein [1] = substrate: N#Cc1cccnc1; assay: purified protein; settings: 0.05 M potassium phosphate pH 6.5, 10 nM enzyme, 0.05-0.75 M substrate
purified protein [2] = substrate: N#Cc1cn([C@@H]2O[C@H](CO)[C@@H](O)[C@H]2O)c2ncnc(N)c12; assay: purified protein; settings: 0.05 M potassium phosphate pH 6.5, 10 nM enzyme, 0.1-2.5 mM substrate

B1: ToyJKL (toyocamycin nitrile hydratase, TNHase) (Streptomyces rimosus) (protein)
chain 1: MSTEHVSLPIAARVRRLEERVIAAGLVTDEQLDTILEHNLSRATPFNGARLVARAWTSPDFRDLLLGEPAAALREMGLDGLLADDEHLRVVANTPTVHNVVVCTLCSCYPVLLLGPSPSWYKSDAYRARVVREPRAVLAEFGTVLPAEVDVRVWDASAEARYMVLPRRPAGTEGLDEEGLAARVTRAGLIGTAPV
chain 2: MGERRFSVGDPVRVRPADPPHHTRVPRYVRGHLGHVVTVQPPCPLPDDVARRRDPFRVLPVYTVRFAARDLWGSGTHLVLIDLWECYLEPAAETARGLGGETS
chain 3: MARLNDIGGTFGYGSIPMDGAEPPHPWRHDWEARVFAVLIGLAMAGVWTASELRDAEERVPPNDYLAASYYERVLMGMELLLDEKGIPSRG
Km (purified protein [1]): 99 ± 2 mM
kcat (purified protein [1]): 79 ± 5 s⁻¹
kcat/Km (purified protein [1]): 800 M⁻¹ s⁻¹
Km (purified protein [2]): 2.8 × 10^–2 ± 1 × 10^–3 mM
kcat (purified protein [2]): 159 ± 2 s⁻¹
kcat/Km (purified protein [2]): 5.7e+06 M⁻¹ s⁻¹

— publication PMC4075990
